Drawing on patent US20260028400A1, this text covers Fold Change of IC50, AMB-LC-0002T/AMB-LC-0003T, IC50 (nM), spheroid volume, AMB-LC-0002T (low ROR1 expression) and IC50 (nM), spheroid volume, AMB-LC-0003T (high ROR1 expression) for 1 substance.

The target of this assay is ROR1 expressed on cell surface (Jeko-1 cell line, AMB-LC-0003T and AMB-LC-0002T patient-derived lung cancer cells) (human) (UniProt Q01973). Briefly: cell-based or functional assay.
Sequence of ROR1 expressed on cell surface (Jeko-1 cell line, AMB-LC-0003T and AMB-LC-0002T patient-derived lung cancer cells) (human) (Q01973 30-937): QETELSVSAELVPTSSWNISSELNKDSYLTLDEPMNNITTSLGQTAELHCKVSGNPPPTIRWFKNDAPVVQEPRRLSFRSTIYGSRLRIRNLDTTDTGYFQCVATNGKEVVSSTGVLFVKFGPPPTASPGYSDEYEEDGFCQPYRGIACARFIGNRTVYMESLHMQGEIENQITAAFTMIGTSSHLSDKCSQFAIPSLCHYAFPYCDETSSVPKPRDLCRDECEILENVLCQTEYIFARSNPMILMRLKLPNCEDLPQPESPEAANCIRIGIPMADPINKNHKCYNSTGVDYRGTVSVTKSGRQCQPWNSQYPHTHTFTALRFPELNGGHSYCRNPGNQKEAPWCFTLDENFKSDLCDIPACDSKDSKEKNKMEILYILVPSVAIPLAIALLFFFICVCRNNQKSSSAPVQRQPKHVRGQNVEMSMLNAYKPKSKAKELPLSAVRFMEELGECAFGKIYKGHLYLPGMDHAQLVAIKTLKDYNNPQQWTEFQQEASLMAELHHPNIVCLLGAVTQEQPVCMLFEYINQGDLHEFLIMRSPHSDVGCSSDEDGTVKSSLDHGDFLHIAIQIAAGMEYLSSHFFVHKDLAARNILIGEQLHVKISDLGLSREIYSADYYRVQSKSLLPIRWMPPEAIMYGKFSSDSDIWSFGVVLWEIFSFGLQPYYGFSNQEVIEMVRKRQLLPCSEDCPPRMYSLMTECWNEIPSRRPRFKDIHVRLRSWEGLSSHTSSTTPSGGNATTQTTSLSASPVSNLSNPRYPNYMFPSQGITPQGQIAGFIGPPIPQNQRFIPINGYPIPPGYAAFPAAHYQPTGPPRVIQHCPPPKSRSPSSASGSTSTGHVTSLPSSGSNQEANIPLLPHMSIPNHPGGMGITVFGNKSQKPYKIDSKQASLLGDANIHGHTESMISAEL

UC961-vc-PAB-MMAE (antibody) gave a Fold Change of IC50, AMB-LC-0002T/AMB-LC-0003T of 11.1 fold; an IC50 (nM), spheroid volume, AMB-LC-0002T (low ROR1 expression) of 282 nM; an IC50 (nM), spheroid volume, AMB-LC-0003T (high ROR1 expression) of 25.4 nM.
